Data taken from patent publication US20150147318A1 (ZOETIS SERVICES, published 2015).

Key:
[1] = biological target: T1, recombinant canine Nerve Growth Factor (Canis lupus familiaris NGF) (canine (Canis lupus familiaris), UniProt Q29074 110-229 (pig entry), limits assumed); assay: SPR, 1:1 binding fit, canine NGF
T1 construct: also called canine NGF; Dog NGF
T1 chain: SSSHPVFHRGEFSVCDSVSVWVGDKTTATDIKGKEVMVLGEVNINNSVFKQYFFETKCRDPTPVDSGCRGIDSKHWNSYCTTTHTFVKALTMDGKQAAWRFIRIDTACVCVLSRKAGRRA

[2] = biological target: T1, recombinant canine Nerve Growth Factor …; assay: SPR, Biacore T100, dog NGF; run 11/24; comment 'Agg?'
[3] = biological target: T1, recombinant canine Nerve Growth Factor …; assay: SPR, Biacore T100, dog NGF; run 11/29; comment 'Agg?'
[4] = biological target: T1, recombinant canine Nerve Growth Factor …; assay: cell-based or functional assay
[5] = biological target: T1, recombinant canine Nerve Growth Factor …; assay: SPR trkA inhibition: mAb pre-incubated with NGF, binding of NGF to trkA measured in RU

B1: LTM135 (HC G103A, LC H32N) (antibody, V domains shown)
VH: EVQLVESGGDLARPGGSLKLSCVVSGFSLIGYDINWVRQAPGKGLQWVTMIWGDGTTDYNSALKSRFTVSRDNAMNTVYLQMNSLRVEDTAVYYCARGGYYYATSYYFDYWGQGTLVTVSS
VL: DIVMTQTPLSLSVSPGETASISCRASQDISNNLNWFRQKPGQSPQRLIYYISRFHSGVPDRFSGSGSGTDFTLRISRVEADDTGVYYCQQSKTLPYTFGAGTKLEIK
notes: Point mutant of canE3M65 as full IgG
[1]
  Kd: 1.69 nM
  koff: 4.23e-05 s⁻¹
  kon: 25100 M⁻¹ s⁻¹
[2]
  Kd: 0.138 nM
[3]
  Kd: 0.0061 nM

B2: LTM construct 133 (HC G103A, LC K92H) (antibody, V domains shown)
VH: EVQLVESGGDLARPGGSLKLSCVVSGFSLIGYDINWVRQAPGKGLQWVTMIWGDGTTDYNSALKSRFTVSRDNAMNTVYLQMNSLRVEDTAVYYCARGGYYYATSYYFDYWGQGTLVTVSS
VL: DIVMTQTPLSLSVSPGETASISCRASQDISNHLNWFRQKPGQSPQRLIYYISRFHSGVPDRFSGSGSGTDFTLRISRVEADDTGVYYCQQSHTLPYTFGAGTKLEIK
notes: as for B1
[2]
  Kd: 0.00133 nM
[3]
  Kd: 0.011 nM

B3: SSM57 (CAN-SSM57-VH, CAN-SSME3M-VL) (antibody, V domains shown)
VH: EVQLVESGGDLARPGGSLKLSCVVSGFSLIQYDINWVRQAPGKGLQWVTMIWGDGTTDYNSALKSRFTVSRDNAMNTVYLQMNSLRVEDTAVYYCARGGYWYATSYYFDYWGQGTLVTVSS
VL: DIVMTQTPLSLSVSPGETASISCRASQSISNNLNWFRQKPGQSPQRLIYYISSFHSGVPDRFSGSGSGTDFTLRISRVEADDTGVYYCQQSHTLPYTFGAGTKLEIK
notes: also called PF 06442590; PF-06442591
[4]
  EC50, pERK inhibition, PC-12 (Rat Neuronal), pre-incubation 1 hour, 2/23/11 (SSM57): 1.08 nM
  EC50, pERK inhibition, PC-12 (Rat Neuronal), pre-incubation 1 hour, 3/26/11 (SSM57): 0.65 nM
  EC50, pERK inhibition, huTrkA (CHO), pre-incubation 1 hour, 3/26/11 (SSM57): 0.85 nM
  EC50, pERK inhibition, huTrkA (CHO), pre-incubation 1 hour, 3/31/11 (SSM57): 0.86 nM
  EC50, pERK inhibition, huTrkA (CHO), pre-incubation 6 hour, 3/31/11 (SSM57): 0.73 nM
  Fold Potency Difference versus RN911, pERK inhibition, PC-12 (Rat Neuronal), pre-incubation 1 hour, 2/23/11 (SSM57): 1.6 fold
  Fold Potency Difference versus RN911, pERK inhibition, PC-12 (Rat Neuronal), pre-incubation 1 hour, 3/26/11 (SSM57): 1.4 fold
  Fold Potency Difference versus RN911, pERK inhibition, huTrkA (CHO), pre-incubation 1 hour, 3/26/11 (SSM57): 1.8 fold
  Fold Potency Difference versus RN911, pERK inhibition, huTrkA (CHO), pre-incubation 1 hour, 3/31/11 (SSM57): 1.4 fold
  Fold Potency Difference versus RN911, pERK inhibition, huTrkA (CHO), pre-incubation 6 hour, 3/31/11 (SSM57): 1.3 fold
[5]
  Ki: 4.2 nM

B4: SSM58 (CAN-SSM58-VH, CAN-SSME3M-VL) (antibody, V domains shown)
VH: EVQLVESGGDLARPGGSLKLSCVVSGFSLIEYDINWVRQAPGKGLQWVTMIWGDGTTDYNSALKSRFTVSRDNAMNTVYLQMNSLRVEDTAVYYCARGGYWYATSYYFDYWGQGTLVTVSS
VL: DIVMTQTPLSLSVSPGETASISCRASQSISNNLNWFRQKPGQSPQRLIYYISSFHSGVPDRFSGSGSGTDFTLRISRVEADDTGVYYCQQSHTLPYTFGAGTKLEIK
[4]
  EC50, pERK inhibition, PC-12 (Rat Neuronal), pre-incubation 1 hour, 2/23/11 (SSM58): 1.05 nM
  EC50, pERK inhibition, PC-12 (Rat Neuronal), pre-incubation 1 hour, 3/26/11 (SSM58): 0.65 nM
  EC50, pERK inhibition, huTrkA (CHO), pre-incubation 1 hour, 3/26/11 (SSM58): 0.79 nM
  EC50, pERK inhibition, huTrkA (CHO), pre-incubation 1 hour, 3/31/11 (SSM58): 0.86 nM
  EC50, pERK inhibition, huTrkA (CHO), pre-incubation 6 hour, 3/31/11 (SSM58): 0.72 nM
  Fold Potency Difference versus RN911, pERK inhibition, PC-12 (Rat Neuronal), pre-incubation 1 hour, 2/23/11 (SSM58): 1.6 fold
  Fold Potency Difference versus RN911, pERK inhibition, PC-12 (Rat Neuronal), pre-incubation 1 hour, 3/26/11 (SSM58): 1.4 fold
  Fold Potency Difference versus RN911, pERK inhibition, huTrkA (CHO), pre-incubation 1 hour, 3/26/11 (SSM58): 1.7 fold
  Fold Potency Difference versus RN911, pERK inhibition, huTrkA (CHO), pre-incubation 1 hour, 3/31/11 (SSM58): 1.4 fold
  Fold Potency Difference versus RN911, pERK inhibition, huTrkA (CHO), pre-incubation 6 hour, 3/31/11 (SSM58): 1.3 fold
[5]
  Ki: 4.2 nM
